The text below walks through data of PMC7289600, “Signaling diversity enabled by Rap1-regulated plasma membrane ERK with distinct temporal dynamics” (eLife, 2020).

The test deals with T1, Rap1-binding domain (RBD) from RalGDS fused to the acceptor fluorophore Ypet (second chain of Rap1A/B-FLARE) (UniProt Q12967 798-885).
T1 construct: also called RalGDS RBD; source: PC12 cells, transfected (Lipofectamine 2000), in living cells
T1 sequence (looked up): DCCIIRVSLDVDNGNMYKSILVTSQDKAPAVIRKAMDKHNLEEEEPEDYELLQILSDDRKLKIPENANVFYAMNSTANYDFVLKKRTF
The experiment in a line: FRET or BRET; dual-chain Rap1A/B-FLARE biosensors expressed in living PC12 cells; EGF added at time 0; yellow over cyan (Y/C) emission ratio imaging in HBSS at 37°C; increase abrogated by co-expression of Rap1GAP or by GGTI-298. The following applies: partners not purified. Background: In BRET a luciferase serves as donor, and the signal depends on an acceptor being close.

Substitutions are numbered along the chain they refer to.

B1: Rap1A fused to the donor fluorophore mCerulean3 (Rap1A chain of the dual-chain biosensor Rap1A-FLARE) (natural protein, UniProt P62834 1-184, looked up)
chain: MREYKLVVLGSGGVGKSALTVQFVQGIFVEKYDPTIEDSYRKQVEVDCQQCMLEILDTAGTEQFTAMRDLYMKNGQGFALVYSITAQSTFNDLQDLREQILRVKDTEDVPMILVGNKCDLEDERVVGKEQGQNLARQWCNCAFLESSAKSKINVNEIFYDLVRQINRKTPVEKKKPKKKSCLLL
notes: Rap1A, GTPase of the Ras family; plasmid provided by Klaus Hahn; source: PC12 cells, transfected (Lipofectamine 2000), in living cells; not shown: mCerulean3, N-terminal, kept
Turning to B1, the “increase in Y/C emission ratio (FRET) after EGF” value is 25.4%.

B2: Rap1B fused to the donor fluorophore mCerulean3 (Rap1B chain of the dual-chain biosensor Rap1B-FLARE) (natural protein, UniProt P61224 1-184, looked up)
chain: B1 chain with C48A, E107D, C139N, E172P, K173G, K175A, P176R, K179S, L182Q
notes: Rap1B, GTPase of the Ras family; plasmid provided by Klaus Hahn; source: PC12 cells, transfected (Lipofectamine 2000), in living cells; not shown: mCerulean3, N-terminal, kept
As for B2, the “increase in Y/C emission ratio (FRET) after EGF” value was 26%.
